The target of the test is ABL1 SH2 domain (Homo sapiens (clone BC059260 maps to …, UniProt P00519)). Nature of the test: ELISA.

Results on two molecules are retold here after PMC2841545 (Protein Engineering, Design and Selection, 2010).

Chain of ABL1 SH2 domain (Homo sapiens (P00519 whole entry, looked up, the tested form may be a part): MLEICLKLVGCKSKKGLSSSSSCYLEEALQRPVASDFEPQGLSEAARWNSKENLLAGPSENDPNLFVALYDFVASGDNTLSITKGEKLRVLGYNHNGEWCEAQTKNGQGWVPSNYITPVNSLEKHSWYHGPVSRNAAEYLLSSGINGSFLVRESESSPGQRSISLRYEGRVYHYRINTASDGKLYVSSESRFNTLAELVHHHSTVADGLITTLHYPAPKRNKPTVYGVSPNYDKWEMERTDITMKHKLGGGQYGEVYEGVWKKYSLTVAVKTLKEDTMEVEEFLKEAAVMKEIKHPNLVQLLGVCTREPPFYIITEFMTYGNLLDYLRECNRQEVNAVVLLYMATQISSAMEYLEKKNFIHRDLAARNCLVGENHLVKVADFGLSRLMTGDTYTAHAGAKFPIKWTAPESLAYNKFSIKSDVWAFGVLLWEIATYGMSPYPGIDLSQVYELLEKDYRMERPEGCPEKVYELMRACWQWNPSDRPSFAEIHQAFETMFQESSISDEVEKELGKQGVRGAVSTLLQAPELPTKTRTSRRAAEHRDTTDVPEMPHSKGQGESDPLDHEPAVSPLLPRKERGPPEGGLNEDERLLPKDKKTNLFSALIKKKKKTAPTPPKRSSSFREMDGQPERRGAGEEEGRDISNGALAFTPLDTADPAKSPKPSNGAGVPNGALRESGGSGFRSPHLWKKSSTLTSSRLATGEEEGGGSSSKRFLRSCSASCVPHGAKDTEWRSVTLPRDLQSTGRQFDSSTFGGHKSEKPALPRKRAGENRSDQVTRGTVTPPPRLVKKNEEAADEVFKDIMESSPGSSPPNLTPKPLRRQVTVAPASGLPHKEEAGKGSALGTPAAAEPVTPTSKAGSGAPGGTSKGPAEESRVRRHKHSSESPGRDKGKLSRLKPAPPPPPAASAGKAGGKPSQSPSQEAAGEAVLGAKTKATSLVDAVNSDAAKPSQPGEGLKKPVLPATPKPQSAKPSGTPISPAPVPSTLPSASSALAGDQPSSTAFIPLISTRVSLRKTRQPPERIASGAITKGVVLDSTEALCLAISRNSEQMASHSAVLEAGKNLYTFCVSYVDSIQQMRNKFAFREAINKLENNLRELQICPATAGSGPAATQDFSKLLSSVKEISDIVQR

B1: scFv 43H02 (Group ai, selected on ABL1) (scFv, V domains shown)
VH: EVQLLESGGGLVKPGGSLRLSCAASGFTFDDYAMHWVRQAPGKGLEWVSGISWNSGSIGYADSVKGRFTISRDNAKNSLYLQMNSLRAEDTALYYCAKGGPGIRYPDAFDIWGQGTLVTVSS
VL: not shown
For the molecule B1, the binding result is “binds”.

B2: scFv 43_E02 (Group aiii, selected on ABL1) (scFv, V domains shown)
VH: EVQLLESGGGLVQPGRSLRLSCAASGFTFDDYAMHWVRQAPGKGLEWVSGISWNSGSIGYADSVKGRFTISRDNAKNSLYLQMNSLRAEDTALYYCAKGGPGIRYPDAFDIWGQGTMVTVSS
VL: DIQMTQSPSSLSASVGDRVTITCRASQSIRNDLGWYQQKPGKAPKLLIYAASSLQSGVPSRFSGSGSGTDFTLTISSLQPEDFATYYCQQSSSTPITFGGGTKVEIK
On to B2, for which the binding result is “binds”.
